Laboratory results reported in patent US20180230236A1.

Assays:
[1] = target: canine IgE (canine monoclonal IgE from mouse x dog heterohybridoma cell line 2.39) (canine); experiment: affinity estimated from titration to end signal on IgE coated ELISA microtiter plates
[2] = target: canine IgE (canine monoclonal IgE from mouse x dog heterohybridoma cell line 2.39) (canine); experiment: flow cytometry; C2 cells loaded with APC-canine IgE, then supernatant of chimera-transfected HEK 293 for 60 min at room temperature; displacement of IgE from FcεRI
[3] = target: canine IgE (canine monoclonal IgE from mouse x dog heterohybridoma cell line 2.39) (canine); experiment: flow cytometry; displacement of APC-canine IgE from FcεRI on C2 cells by chimera supernatant

canine IgE (canine monoclonal IgE from mouse x dog heterohybridoma cell line 2.39) (canine), sequence (P25054 whole entry): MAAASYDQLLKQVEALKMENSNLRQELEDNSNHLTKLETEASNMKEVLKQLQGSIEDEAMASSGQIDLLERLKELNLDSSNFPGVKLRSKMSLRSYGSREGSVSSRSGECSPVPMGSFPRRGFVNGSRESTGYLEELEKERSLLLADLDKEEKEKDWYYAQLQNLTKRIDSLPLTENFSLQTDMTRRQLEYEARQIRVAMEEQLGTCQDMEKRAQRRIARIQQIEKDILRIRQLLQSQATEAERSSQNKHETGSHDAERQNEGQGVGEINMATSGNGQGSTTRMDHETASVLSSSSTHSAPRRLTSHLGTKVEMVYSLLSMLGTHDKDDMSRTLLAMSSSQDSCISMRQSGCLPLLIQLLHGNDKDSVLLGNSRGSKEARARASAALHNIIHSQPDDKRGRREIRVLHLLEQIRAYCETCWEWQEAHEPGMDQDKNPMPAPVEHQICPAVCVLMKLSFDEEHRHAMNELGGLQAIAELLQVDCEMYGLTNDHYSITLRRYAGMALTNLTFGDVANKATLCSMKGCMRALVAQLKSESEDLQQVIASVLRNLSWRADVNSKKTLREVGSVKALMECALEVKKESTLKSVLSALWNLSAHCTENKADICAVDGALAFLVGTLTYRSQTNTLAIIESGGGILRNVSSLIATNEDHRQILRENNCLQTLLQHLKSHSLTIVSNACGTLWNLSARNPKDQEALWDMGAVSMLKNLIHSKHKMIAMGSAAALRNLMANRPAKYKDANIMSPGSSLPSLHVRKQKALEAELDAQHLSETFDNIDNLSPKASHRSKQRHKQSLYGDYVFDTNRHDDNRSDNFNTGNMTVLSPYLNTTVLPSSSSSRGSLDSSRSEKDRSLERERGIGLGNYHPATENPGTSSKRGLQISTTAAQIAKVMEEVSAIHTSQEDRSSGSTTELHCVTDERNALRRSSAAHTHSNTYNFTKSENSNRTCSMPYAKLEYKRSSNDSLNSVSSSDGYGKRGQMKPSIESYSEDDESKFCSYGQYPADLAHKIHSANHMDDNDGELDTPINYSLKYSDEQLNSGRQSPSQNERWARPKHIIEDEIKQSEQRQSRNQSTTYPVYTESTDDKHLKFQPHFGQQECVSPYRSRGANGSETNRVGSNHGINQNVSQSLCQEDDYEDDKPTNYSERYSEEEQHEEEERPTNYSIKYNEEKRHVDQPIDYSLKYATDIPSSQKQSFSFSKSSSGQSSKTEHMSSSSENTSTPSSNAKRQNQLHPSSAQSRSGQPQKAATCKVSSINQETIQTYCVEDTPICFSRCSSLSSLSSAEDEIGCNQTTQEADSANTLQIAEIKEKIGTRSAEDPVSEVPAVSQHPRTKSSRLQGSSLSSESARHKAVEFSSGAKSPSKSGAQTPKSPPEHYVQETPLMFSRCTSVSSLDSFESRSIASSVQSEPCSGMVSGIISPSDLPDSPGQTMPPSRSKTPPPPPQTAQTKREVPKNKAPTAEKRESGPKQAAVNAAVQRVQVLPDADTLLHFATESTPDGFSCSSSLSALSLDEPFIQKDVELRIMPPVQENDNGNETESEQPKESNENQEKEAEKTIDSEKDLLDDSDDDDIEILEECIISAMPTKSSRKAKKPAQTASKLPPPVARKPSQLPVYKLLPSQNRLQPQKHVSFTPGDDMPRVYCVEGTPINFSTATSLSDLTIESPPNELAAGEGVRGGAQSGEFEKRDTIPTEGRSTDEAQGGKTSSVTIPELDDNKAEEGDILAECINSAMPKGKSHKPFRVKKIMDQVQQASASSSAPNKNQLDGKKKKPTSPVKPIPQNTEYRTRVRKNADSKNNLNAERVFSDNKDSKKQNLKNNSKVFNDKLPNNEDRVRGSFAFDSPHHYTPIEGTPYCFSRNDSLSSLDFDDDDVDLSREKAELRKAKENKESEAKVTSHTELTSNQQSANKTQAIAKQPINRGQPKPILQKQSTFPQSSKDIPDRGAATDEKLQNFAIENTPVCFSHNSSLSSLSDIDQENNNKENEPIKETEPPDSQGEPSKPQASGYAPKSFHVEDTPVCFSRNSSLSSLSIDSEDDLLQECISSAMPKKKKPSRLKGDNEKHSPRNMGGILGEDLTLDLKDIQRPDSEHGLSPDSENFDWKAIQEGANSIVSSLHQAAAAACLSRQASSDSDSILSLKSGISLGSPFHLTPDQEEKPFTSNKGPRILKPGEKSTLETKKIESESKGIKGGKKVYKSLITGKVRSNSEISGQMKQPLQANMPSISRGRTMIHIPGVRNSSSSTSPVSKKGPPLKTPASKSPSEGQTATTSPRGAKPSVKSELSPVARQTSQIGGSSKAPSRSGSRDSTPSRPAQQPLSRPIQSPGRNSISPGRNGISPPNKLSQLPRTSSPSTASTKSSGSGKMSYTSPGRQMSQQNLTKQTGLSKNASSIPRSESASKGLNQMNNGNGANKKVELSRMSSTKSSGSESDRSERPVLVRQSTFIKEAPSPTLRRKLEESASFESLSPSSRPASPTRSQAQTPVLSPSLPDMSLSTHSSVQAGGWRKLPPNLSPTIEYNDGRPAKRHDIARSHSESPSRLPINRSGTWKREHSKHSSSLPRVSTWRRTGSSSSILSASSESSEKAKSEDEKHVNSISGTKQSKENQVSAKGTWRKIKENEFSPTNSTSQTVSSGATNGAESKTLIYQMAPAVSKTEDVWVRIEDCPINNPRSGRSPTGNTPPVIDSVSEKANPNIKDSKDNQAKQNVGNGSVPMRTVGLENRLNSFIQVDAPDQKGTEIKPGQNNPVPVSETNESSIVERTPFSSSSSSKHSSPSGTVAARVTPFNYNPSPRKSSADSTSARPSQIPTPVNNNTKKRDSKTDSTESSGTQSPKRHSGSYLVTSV

B1: chimera of canine FcεRI alpha chain x scFv-5.91 (protein)
chain: DTLKPTVSMNPPWNTILKDDSVTLTCTGNNSLEVDSAVWLHNNTTLQETTSRLDINKAQIQDSGEYRCRENRSILSDPVYLTVFTEWLILQASANVVMEGESFLIRCHSWKNLRLTKVTYYKDGIPIRYWYENFNISISNVTTKNSGNYSCSGQIQQKGYTSKVLNIIVKKEPTKQNKYSGLQGGGGSGGGGSGGGGSEVQLQQSGPELVKPGASMKISCKASGYSITGYTIHWVKQSHGKNLEWIGLINPYTGGITYNQNFKGKATLTVDKSSSTAYMELLSLTSEDSAVYYCSRGPYGNFYAMDYWGQGTSVTVSSGGGGSGGGGSGGGGSDIQMTQSPASLSASVGETVTITCRASGNIHNYLAWYQQKQGKSPQLLVYNAKTLADSVPSRFSGSGSGTQFSLKINSLQPEDFGSYYCQHFWSTPYTFGGGTKLEIKRA
B1 gave an affinity [1] of 100 pM, a % cells with label (after chimera supernatant) [2] of 4.11% and a loss of mast cells carrying IgE [3] greater than 50%.
